Experimental data published in the supplement of paper PMC12042874.
± gives the uncertainty stated by the source.

Assay: amyloid nucleation score (Sup35N fusion, yeast selection) (log enrichment); library NNK2; higher = more nucleation; inactive = no reads after selection
Outline: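 Random libraries were run with three technical output replicates. In each, psi-negative yeast expressing Sup35N fused to peptides of 20 random codons were induced 24 hours with 100 μM copper sulfate and grown 7 days at 30°C on medium lacking adenine and uracil, and input and output plasmid inserts were Illumina-sequenced. The nucleation score is the DiMSum log enrichment of output over input reads, centred on the mode score of non-aggregating sequences, and sequences under 100 input reads were excluded.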

Point of comparison: EGIVAMAERYYSSNIRAVTW, amyloid nucleation score 0.296 ± 0.32. Against it:
- DILMLNRSVGDIREAISVNG — within error, 0.48 ± 0.51
- DIMTYPLRSINRRFKGVGRR — higher, 4.481 ± 0.039
- DIPLSSAKAYI — within error, 0.443 ± 0.8
- DIVRSYV — within error, -0.27 ± 0.45
- DIWKTQ — within error, 0.218 ± 0.8
- DIWYLICLSQSSGLFLVGVM — within error, -0.55 ± 0.79
- DKSCLISVMLICLL — higher, 5.21 ± 0.059
- DKSIR — within error, 0.239 ± 0.33
- DKSNGVTMVESITSGG — within error, -0.303 ± 0.56
- DLGDKFL — higher, 1.67 ± 0.23
- DLGHLTLISKFKFNESSAEH — within error, -0.221 ± 1.1
- DLGMECTQVGRLDVVWELLI — within error, 0.632 ± 0.31
- DLHWA — within error, 0.595 ± 0.28
- DLLVCC — higher, 1.28 ± 0.26
- DLSISSLGFQNIVLSHDNGY — lower, -1.13 ± 1.1
- DMRFYMVLA — higher, 4.94 ± 0.051
- DMSFQDIIMP — lower, -0.931 ± 0.54
- DMYWCIYDRFMSLSWKT — lower, -0.597 ± 0.53
- DNKSCFTNVWNYNVTEHWGH — lower, -1.4 ± 0.54
- DNNTIWD — higher, 0.94 ± 0.23
- DNVKVWSGFTRY — within error, -0.148 ± 0.49
- DPPSSFEFMCLRLWV — higher, 3.35 ± 0.085
- DQESRNSVFSGKGGRRDVSS — within error, -0.134 ± 0.37
- DQSTSFFIFYNQTNWSMLFP — higher, 6.12 ± 0.056
- DRAGLATLNSLELGDDGFLG — lower, -1 ± 0.78
- DRLGTYSS — within error, 0.409 ± 0.54
- DRNVTESMGYVWTASWGAY — within error, 0.366 ± 0.41
- DRQCK — within error, 0.445 ± 0.32
- DRSFVETREVACVVMYTSVF — within error, -0.395 ± 0.61
- DRVNGYIIGRLTAYTSVSKD — within error, -0.317 ± 1.1
- DRVQG — higher, 1.2 ± 0.22
- DRWGFDFCQLLV — higher, 1.95 ± 0.12
- DRWLVFPSNRPVFVMDRFNG — within error, -0.414 ± 0.64
- DRYVSV — within error, 0.455 ± 0.43
- DSACFYENSM — within error, -0.48 ± 0.79
- DSFASTQYCAVSSSVQLAWQ — higher, 1.45 ± 0.27
- DSGFGSW — lower, -0.807 ± 0.74
- DSGLMSFVCNVDPKCVCFVN — higher, 7.968 ± 0.075
- DSGNDLCDNYPVCWVKFCYC — higher, 5.2 ± 0.063
- DSKWIM — within error, -0.326 ± 0.46
- DSRMRWL — within error, 0.149 ± 0.27
- DSTVRPMRGGECNAGVAGKE — within error, 0.794 ± 0.24
- DSWSAVYTNISELAIGGCHG — within error, -0.055 ± 1.1
- DTFINWIWRGYGKWMCSGRR — within error, -0.135 ± 0.39
- DTLCYNRMWFLPGLKMDLGG — higher, 7.62 ± 0.054
- DTWTYVAWFLYIIICSRQTE — lower, -0.623 ± 0.35
- DVAYSYRHECIADKLLRVEH — within error, 0.019 ± 0.55
- DVHNMGSPGVLAMLVTSDGK — within error, 0.876 ± 0.74
- DVHTVCASSKHHLRVVKAVT — within error, 0.494 ± 0.8
- DVKDDKLFNCLDVVMWVGNL — within error, -0.058 ± 0.15
- DVKSYTITYSLSFHVMSVII — higher, 2.72 ± 0.21
- DVNISASNEVALIASDRLLC — within error, -0.149 ± 0.55
- DVQWTGPRPFPFV — within error, 0.679 ± 0.4
- DVRVISNDNAWDDLRLYFDK — within error, 0.36 ± 0.3
- DVVCRMRATYCWALRVMGQR — higher, 1.58 ± 0.29
- DVYSSVRVNYT — within error, -0.386 ± 0.56
- DWFGLCFMKRFKFGEYKACM — lower, -1.04 ± 0.48
- DWTDCYWMLRDTGGFSIS — lower, -1.35 ± 0.78
- DYCSYTAL — within error, -0.081 ± 1.1
- DYIFGYSTILFVMLCIHNFY — lower, -1.35 ± 0.78
- DYMFIDLASSNTNLRSWSHS — lower, -0.408 ± 0.37
- DYSRLSLGICEVDDCTLRMV — lower, -0.761 ± 0.39
- DYWFRGAESCTCGLE — within error, 0.012 ± 0.63
- DYYNRVISASVYSLGGCC — higher, 2.82 ± 0.075
- DYYYIPSSIVSTIFKEFSPL — lower, -1.97 ± 0.78
- EALSKLFFYSWERSFHNGEG — higher, 2.11 ± 0.11
- EARSGVNGRARSMFLIGRYS — within error, -0.262 ± 0.63
- ECCQILCGSYWYIKYLSYDC — higher, 1.8 ± 0.13
- EDELSPF — within error, 0.453 ± 0.18
- EDITI — lower, -1.67 ± 0.41
- EEKEVDVEVGRETHMSARDN — within error, 0.563 ± 0.15
- EELAPSCAEDEILILSMLIN — within error, -0.592 ± 0.76
- EELSIQRALLVCPKKEGFLE — higher, 3.69 ± 0.082
- EEVQAFI — within error, -0.22 ± 0.48
- EEWNRRANMGFLNYFETHGG — lower, -1.14 ± 1
- EFILHVTQIAAIMDLRLVHM — higher, 4.01 ± 0.11
- EFLLYRTSVP — within error, -0.205 ± 0.76
- EFNYHVQRSLFSR — within error, 0.285 ± 0.65
- EFSIHAGLM — within error, 0.222 ± 0.46
- EFYFG — within error, 0.599 ± 0.8

In the case of DMCDYQSVGF, the amyloid nucleation score is reported as “inactive”.
In the case of DRVFLFFKKRPGPWMMARLY, the amyloid nucleation score is reported as “inactive”.
With DSGLSHSNQWVDFSEYPTRL the amyloid nucleation score was “inactive”.
In the case of DSIFFYTGMQTDYHAHMSPC, the amyloid nucleation score is reported as “inactive”.
In the case of DVYTQASLGMS, the amyloid nucleation score is reported as “inactive”.
For DYLKLLAYNVLFR, the amyloid nucleation score was “inactive”.
